{"source": "the DeepSol protein solubility set"}
{"assay": "soluble on expression in E. coli; label from the status in PepcDB or PDB records"}
{"sequence": "SNAMTKPMIQIALDQTNLTDAVAVASNVASYVDVIEVGTILAFAEGMKAVSTLRHNHPNHILVCDMKTTDGGAILSRMAFEAGADWITVSAAAHIATIAACKKVADELNGEIQIEIYGNWTMQDAKAWVDLGITQAIYHRSRDAELAGIGWTTDDLDKMRQLSALGIELSITGGIVPEDIYLFEGIKTKTFIAGRALAGAEGQQTAAALREQIDRFWP", "soluble on expression in E. coli": "soluble"}
{"sequence": "MGSDKIHHHHHHLIIDANIYWLPNEIFVSEEMTNHFLRVVPREYGVYAYQREKNKNEREFVIEKPEGSENLNYFQGDYDLSVQLENMDQAGVDTGVMKLPGCQEWLDLDLCIQFNNQMAETVKKSKGRFRALAVVPPSGDADTLRELKRCIKELHMNGLQLSAHYGNKYLDDPMFRPLLKCASDLNIPVYVHHTPVPVEYNSLADYNNLRRSYGRCEDQTIAVTREIFSGMFKELPNLKMIHSMLGGGYFAYKNMFFPNDSGHGRFDANTSDVARSLKDNIYFEMSHAQPWGKAELKCAVEVLGADHIIYGSSYPVKKDWLIGGPQYVGDLPISQDEKDMLLFKNAERIYGIK", "soluble on expression in E. coli": "not soluble"}
{"sequence": "MGSDKIHHHHHHMSQSAITVDQVTVTYRNGHTALRDATFQVPGGSIAALVGVNGSGKSTLFKALMGFVHLAQGDITILQQSVNKALKKNLIAYVPQSEEVDWSFPVLVEDVVMMGRYGHMGWLRRPTAHDHACVDAALARVDMQEYRHRQIGELSGGQKKRVFLARAIAQDGQVILLDEPFTGVDVKTEARIIDLLRELRDEGRTMLVSTHNLGSVTEFCDYTVMIKGTVLASGPTETTFTAANLEQAFSGVLRHIALSGGEEHIITDDERPFISRRVASGGKSS", "soluble on expression in E. coli": "not soluble"}
{"sequence": "MSLSLESLEWMAFDSFLLWRSEESIDARILLVEINQNDNYSLTSTISNSSFIGVIEKLQVYQPKVIGLEVDQHLLINSQEDKLAKIFQKYKNLIANEKILPLQVHSYLDLPNEQITFADQILDNDGKSRRSLLAINTSNGYKLSLAMELARIYLAEKNISLENSRLGKTKLPRFLPNSGGYIRADASGFQVLINFRSGNQRFRTLSGEDIKNGKFNPEWIRDRIVIIGITNTHNQGFIPTSAITSVKSASTQVNKLEIQAHAISQIISAVLDGRPLINTWNDGEGHHHHHH", "soluble on expression in E. coli": "not soluble"}
{"sequence": "MKRMHNPAHPGEVLREYLGELTVTNAAAKLGVSRVALSRILNGTNGISADMALRLEDALGTSAEMWAAMQFKYDLWVASQQPRPKITRLHV", "soluble on expression in E. coli": "not soluble"}
{"sequence": "MMPLSTPDFASIRDTLLRDLQNLRADADIAPDSDYFVRASSVASAVEGLYQHQSWIARQIFPDTADSEYLEQHARLRGIVRKPAAAASGTLRISGNAGAVVSGSLQLRIGEQLYATPAANPDGSPYAARLDANGQAELPIFASQAGAAGNQPESLPVELMQAPSGVSAKALLLSMRNGVDVEDDAALLDRLLELIRRPPAGGNRHDYRRWAMEVKGVSAAYVYPLRRGLGTVDVVITANGDLPSQEILNNVQAHIEDLRPVTAKSCLVLAPTPRPVDIDVALNLGGANLDAFTPLLQQTLQAYFAGLAPGERLVKSRIEALISDLPGVQDRQLNSPAGNVDPVSDPTKVEWLRLGKLTVGLLKLEHHHHHH", "soluble on expression in E. coli": "soluble"}
{"sequence": "MGSDKIHHHHHHMVEELLGKALARKRSLRKDETIDVFNRVTYFFPKDFVITNYPRNPVAVFNPGAVLVGKALHVFPRLIFDYYKYVSSIGHFIVNIDDLLNGEVKKPLEMEVVFWPRDIQEFLGCEDPRVFFRNSRFELLYTAKGYKDWSQEGKPHTDFLAYAVLDEDLNLIEKRYISIKSTLGEYVPVSMKDSSFVESKVILTRLTVGDAKVCWRGRLEGSYIDLYSLDPVFFPEEWETKVGWSTNTVEVKEGYLVGWHAVLKDLTYKNGLALVDGRGRLLGTTNYVLSPKGVIEEYGDRIRVIFGCGLVVYGGRVIWIGGVSDWAIGVFETSEREIMNLMKEAT", "soluble on expression in E. coli": "not soluble"}
{"sequence": "MTLDYHQPTTTNTTLPDDIHMKDPEEEEFEEYEDELLEEEEEFDEELEELENSDSASSLVSAGSPHGSSSSNGSHGSSPPLQVQSPSQGSGSSGSPTGQPEKRHICTVCGKGFSYFSILESHKRSHTGEKPYNCHFCQKTFAQKATLQVHERTHTGERPYKCRYCEKTFAQYGTKTVHEKSAHLGIRNYKCPKCDKLLSSPSALYTHKKTHGDKTFRCDFCPKTFALKNYLKLHVKQVHEQNERKHVCVYCNKGFAYAGSLQVHVRTHTGERPYVCKFCPKAFASQGNLQSHERTHTGERPYSCQFCQRTFIQKSQLTAHESTHLTQKHSVNPDSTTADILPVAGSVTDHQMVGNYECTFCNKKYPYASSLYIHMRKHTEKSAYSCDGCGKPYSQKISLNIHQDQCEAFKNRLKTTDSQFSHNCDGCGKSFVQRIALQIHVDSCEPHKNLARLKLSQQQNQNQNSDSESDTEMKICPLPNPPLTLAPTHQQIPPPVNIYAQQPPPNPLGSILGNTSLTPQTLNFGLPSLSSASFSSLNAHAPFTPVELPNSADFGPLTASKPHAVPFHPSEMCLSAFRKVPESSSISGLGSLSTSILSTQLLLQLQHTPDFNYLLNQNLLSSLAGLSGLSATLGPQLQATTPTSANQQPFLMAAPSAVQPLV", "soluble on expression in E. coli": "not soluble"}
{"sequence": "MRDVLEVLEFPRVRALLAERAKTPLGRELALALAPLPREEAEKRHELTGEALSYPYALPEAGTLREAYGRALAGARLSGPELLKAAKALEEAMALKEELLPLKNALSQVAEGIGDHTPFLERVRKALDEEGAVKDEASPRLAQIRRELRPLRQQILDRLYALMDRHREAFQDRFVTLRRERYCVPVRAGMAQKVPGILLDESESGATLFIEPFSVVKLNNRLQALRLKEEEEVNRILRDLSERLAKDEGVPKTLEALGLLDLVQAQAALARDLGLSRPAFGERYELYRAFHPLIPDAVRNSFALDEKNRILLISGPNMGGKTALLKTLGLAVLMAQSGLFVAAEKALLAWPDRVYADIGDEQSLQENLSTFAGHLRRLREMLEEATSHSLVLIDELGSGTDPEEGAALSQAILEALLERGVKGMVTTHLSPLKAFAQGREGIQNASMRFDLEALRPTYELVLGVPGRSYALAIARRLALPEEVLKRAEALLPEGGRLEALLERLEAERLALEAERERLRRELSQVERLRKALAEREARFEEERAERLKALEEEVRAELLKVEAELKALKEKARTEGKRDALRELMALRERYAKKAPPPPPPPGLAPGVLVEVPSLGKRGRVVELRGEEVLVQVGPLKMSLKPQEVKPLPEAEPGKPLLAKPRREVKEVDLRGLTVAEALLEVDQALEEARALGLSTLRLLHGKGTGALRQAIREALRRDKRVESFADAPPGEGGHGVTVVALRP", "soluble on expression in E. coli": "soluble"}
{"sequence": "MNTLEKIQKNLENFSKSERKVAEVIMASPQTAIHSSIATLAKMADVSEPTVNRFCRRLDTKGFPDFKLHLAQSLANGTPYVNRNVEEDDGPDAYTHKIFESTMACLDVAKNSLDPMQVNRAVDLLTQAKRISFFGLGASSSVARDAQNKFIRFNIPITCFEDIVMQRMSCINCSDNDVIVLISHTGRTKSQVEIANLARENGATVIAITAKDSPLEKASSLAITLDIPEDTDVYMPMASRVVQMTVIDVLATGFTLRRGTGFRENLKRVKDALKDSRYDKLSQY", "soluble on expression in E. coli": "not soluble"}
{"sequence": "MKIGIDAGGTLIKIVQEHDNRRYYRTELTTNIQKVIDWLNNEEIETLKLTGGNAGVIADQIHHSPEIFVEFDASSKGLEILLDEQGHQIEHYIFANVGTGTSFHYFDGKDQQRVGGVGTGGGMIQGLGYLLSNITDYKELTNLAQNGDRDAIDLKVKHIYKDTEPPIPGDLTAANFGNVLHHLDNQFTSANKLASAIGVVGEVITTMAITLAREYKTNHVVYIGSSFNNNQLLREVVENYTVLRGFKPYYIENGAFSGALGALYLLEHHHHHH", "soluble on expression in E. coli": "soluble"}
{"sequence": "MGSDKIHHHHHHMKSSQPFIYEAHAARVVFGAGSSSQVAAEVERLGAKRALVLCTPNQQAEAERIADLLGPLSAGVYAGAVMHVPIESARDATARAREAGADCAVAVGGGSTTGLGKAIALETGMPIVAIPTTYAGSEVTPVYGLTEAGTKRTGRDPRVLPRTVIYDPALTVGLPRGLSVTSALNAIAHAAEGLYARDANPVMSLMAEEGIRALAAGIPAVFNDPADLDARSQCLYGAWLCGTVLGGVGMALHHKLCHTLGGSFNLPHAETHTIVLPHALAYNAAAVPEAMARIRRATGAGEQSAAATLFDLAQRHGAPVALRDIGMREEDLDRAADIALASPYWNPRPIEREPIRALLQAAYEGVRPD", "soluble on expression in E. coli": "not soluble"}
{"sequence": "MGSDKIHHHHHHMKYDIPTMTAEAVSLLKSLISIPSISREETQAADFLQNYIEAEGMQTGRKGNNVWCLSPMFDLKKPTILLNSHIDTVKPVNGWRKDPFTPREENGKLYGLGSNDAGASVVSLLQVFLQLCRTSQNYNLIYLASCEEEVSGKEGIESVLPGLPPVSFAIVGEPTEMQPAIAEKGLMVLDVTATGKAGHAARDEGDNAIYKVLNDIAWFRDYRFEKESPLLGPVKMSVTVINAGTQHNVVPDKCTFVVDIRSNELYSNEDLFAEIRKHIACDAKARSFRLNSSRIDEKHPFVQKAVKMGRIPFGSPTLSDQALMSFASVKIGPGRSSRSHTAEEYIMLKEIEEAIGIYLDLLDGLKL", "soluble on expression in E. coli": "not soluble"}
{"sequence": "MGSDKIHHHHHHMVRLSEAEVQNPKLGEYQCLADLNLFDSPECTRLATQSASGRHLWVTSNHQNLAVEVYLCEDDYPGWLSLSDFDSLQPATVPYQAATFSESEIKKLLAEVIAFTQKAMQQSNYYLWGGTVGPNYDCSGLMQAAFASVGIWLPRDAYQQEGFTQPITIAELVAGDLVFFGTSQKATHVGLYLADGYYIHSSGKDQGRDGIGIDILSEQGDAVSLSYYQQLRGAGRVFKSYEPQRR", "soluble on expression in E. coli": "soluble"}
{"sequence": "MGSDKIHHHHHHMINYTELEENIKKNNIENVYIMCGFNEKLMKESINKILKKSISQDFESLNYSVFDGNEVEFEDILNACETVPFMSEKRMVVVYRAGFLNDNSSGSNKNSDKLIKDIEKYVPNVPKHCILVMYYVFDNTREKPSYRVKKFDKKVCVVEFSKLRGMQFQKKVKDVFAEKGKQIGKTELNYFCSRVENNMDIVYNEIEKLCCYTLEKEITKESIDNLLQPNETDDIFNLVDYISQSKPEMAITVLNEIMYKGVKANSILYMVERQFKLMLSIKIGIENKQSKEALVKELKLNPYVCDKMINECKRFTMKKILKSLDICLRTEKELKSVSGDPKFKMEVLIINLAII", "soluble on expression in E. coli": "not soluble"}
{"sequence": "MSDGQHRAADAVVVGAGLAGLACALDLCRAGWRVALLEASDGVGGRMRTDRRDGFLLDRGFQVFNTSYPQVKRRMELKSLRLRPFTAGVVAHTSNGPVRLADPTREPRAAGTLLPGRALPARDLAALAALTARDAVLPVAVTRRRRDRPTSAALSRVGLSDAAIAGILRPFLSGVFLEDRLETSARFFHLVWRSMVRGSLCLPAEGIGAVPAQLADGLPDGVLRLGTPVAEITDAGVLLGDGGEVPARVVVVATDPATAAGLLPDLTVPDTRTVTTYYHATDSPPTAEPILMVDSTGAILNTCVLSQVAPTYAPPGTGLVSTSVLGTDPPGRAQAVLRRLAELYGTDTSGWEQVAARTVDGALPAMLPPWPLSRTTRIGPGRYVCGDHRATGSVQGALASGTRAAREVRADREPQRLEHHHHHH", "soluble on expression in E. coli": "soluble"}
{"sequence": "MGSDKIHHHHHHMINSYISQQIERNFPYKPTDDQFLALHTLTEFLLSEEPDSLLLMKGYAGTGKTSLVGALVKTLNELKQKTFLLAPTGRAAKVFSGYAGQKAYTIHKKIYRQRAFSNEPTGFMPADNLHKDTLFIVDEASMIANEGLDSFVFGSGRLLDDLIQYVYSGENCRLILMGDVAQLPPVMQTESPALNPEILRGYNLQVWEIALTQVVRQSEDSGILFNATRLRDALRNHTVEIFPKLQLKGFSDFTKVNGDELIEEISSAYSRDGMEETMIISRSNKRATIYNNGIRNRILYREEELSSGDRLMVAKNNYYWTANCKEMDFIANGEIIQVMRVRRVTEMYGFRFADITARFQDYDLEIDLKILLDTLQTDSPALPKELNDKLFYTILEDYEDIPTKAGKMKKMKVDPHYNVVQVKYAYAVTCHKAQGGQWMNVFLDIGYITEEMLGEDFYRWLYTAFTRATHHLYLVNLPDEFVE", "soluble on expression in E. coli": "not soluble"}
